Data published in publication PMC6312923 (Life Science Alliance, 2018).

Experiments:
[1] = target: T1, recombinant PCNA (Homo sapiens, UniProt P12004); assay: FP assay, direct binding of TAMRA-labelled PIP box peptides to PCNA
T1 construct: made in house; host or cells: Escherichia coli BL21 (DE3)

[2] = tested on: PCNA; assay: X-ray crystal structure of PCNA/PIP peptide complexes; assay type: binding, human; conditions: PCNA trimer; Cdt2 3.5 Å (6QC0), Cdt1 3.4 Å (6QCG)
Experimental: The protein solution at 17 mg·ml^−1 was pre-incubated with an equimolar amount of peptide, and 0.1 μl of this solution was mixed with 0.1 μl of reservoir solution and equilibrated against a 30 μl reservoir. Crystals for the Cdt2 complex were obtained in 10% (wt/vol) PEG 6000 and 100 mM MES/HCl, pH 6.0. Crystals for the Cdt1 complex were obtained in 15% (wt/vol) PEG 400, 100 mM calcium acetate, and 100 mM MES/HCl, pH 6.0. Crystals appeared at 4°C within 72 h. Crystals were briefly transferred to a cryo-protectant solution containing the reservoir solution and 25% (wt/vol) PEG200 and vitrified by dipping in liquid nitrogen.
X-ray data were collected on beamline ID29 at the European Synchrotron Radiation Facility. The images were integrated with XDS ([Kabsch, 2010]) and merged and scaled with AIMLESS ([Evans, 2011]). […] The models were built using COOT ([Emsley et al, 2010]) and refined with REFMAC ([Murshudov et al, 2011]) in iterative cycles. Model re-building and refinement parameter adjustment were performed in PDB-REDO ([Joosten et al, 2014]); homology-based hydrogen bond restraints ([van Beusekom et al, 2018]) were used at some stages of the procedure. The quality of the models was evaluated by MOLPROBITY ([Chen et al, 2010]). […]

[3] = target: T2, PCNA (recombinant, for the in vitro binding assays; free or loaded on DNA) (human, UniProt P12004 1-261); assay: pull-down; PCNA loaded by RFC (2 mM ATP, 37°C, 1 h) on nicked circular DNA beads, washed; beads incubated with purified Cdt1-3FLAG or CRL4^Cdt2 alone at 4°C for 1 h in HBS buffer (10 mM Hepes pH 7.4, 10 mM MgCl2, 0.2 mM EDTA, 0.05% Tween 20, 0.15 M NaCl); bound proteins by Western blot; conditions: both partners purified
T2 construct: PCNA, human, purified essentially as a trimer as described (Fukuda et al, 1995); also called free PCNA; PCNA^(on DNA); source: E. coli Rosetta(DE3) transformed with pT7-PCNA, purified (Resource Q, Superdex 200, Mono Q)
T2 sequence (P12004 whole entry): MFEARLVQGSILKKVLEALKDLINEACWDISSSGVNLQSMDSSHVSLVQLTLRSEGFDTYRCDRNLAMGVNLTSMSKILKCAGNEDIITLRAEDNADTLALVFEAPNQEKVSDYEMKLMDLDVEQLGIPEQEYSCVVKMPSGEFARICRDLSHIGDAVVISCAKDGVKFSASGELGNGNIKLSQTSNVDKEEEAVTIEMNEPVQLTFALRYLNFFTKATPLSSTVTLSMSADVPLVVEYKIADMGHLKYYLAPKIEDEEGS

[4] = tested on: PCNA loaded on nicked circular DNA (PCNA^on DNA); assay: Binding of purified Cdt1 and CRL4^Cdt2 to PCNA loaded on ncDNA beads; set-up: species or system human; conditions: RFC +, 4°C 1 h, n = 3 or n > 3
Experimental: In our in vitro conditions, three molecules of PCNA trimer were loaded on one plasmid DNA. […] The interaction was not mediated by RFC proteins bound on ncDNA (Fig 5D, lane 6).
Figure S5. […] The beads were then incubated with Cdt1 or CRL4^Cdt2 (Step 2; binding). (B) RFC-dependent loading of PCNA.
Closed circular (cc) DNA beads were prepared as described ([Higashi et al, 2012]). Briefly, single-stranded DNA templates prepared using pBluescript II KS(−) were annealed with a biotinated oligonucleotide primer (5′-[…] [biotin-dT][…]-3′). After second-strand synthesis and ligation, covalently cc double-stranded DNA was purified by CsCl/EtBr density gradient centrifugation, incubated with streptavidin, and bound to biotin-sepharose beads to produce the cc DNA beads (around 100 ng per 1 μl bed volume of beads). A single nick was introduced by Nb.BbvCI (New England Biolabs) treatment to produce the ncDNA beads. As control beads, biotin-sepharose beads were incubated with streptavidin alone (sa-beads).
The sa-beads were treated in the same way and used as control beads. The beads were incubated with Cdt1 or CRL4^Cdt2 alone at 4°C for 1 h and washed with HBS buffer. The bound proteins were analysed on Western blotting. […] The purified nc DNA was run on 0.8% agarose gel in 1× TBE (Tris-borate-EDTA) buffer and detected with ethidium bromide.

[5] = tested on: free PCNA; assay: Binding of free PCNA to Cdt1 or CRL4^Cdt2 on anti-FLAG beads; set-up: species or system human; conditions: 2 h at 4°C, Western blotting, three independent experiments
Source text: FLAG-tagged Cdt1 (Cdt1-3FLAG) and CRL4^Cdt2 (Cdt2-3FLAG) were expressed in insect cells and purified on anti-FLAG resin (Fig 5A).

[6] = tested on: UV-C–damaged sites in MCF7 cells; assay: FRAP of GFP-tagged proteins at sites of local UV-C damage in MCF7 cells; assay type: cell-based, human; conditions: GFP-tagged, UV-C 50 J/m^2

T1 sequence (P12004 whole entry): as above

## MEQRRVTDFFARRR [Cdt1^PIP, Cdt1 PIP box peptide (1–14)]
[1]
  relative affinity for PCNA, Cdt2^PIP versus Cdt1^PIP: two orders of magnitude weaker
[2]
  binding stoichiometry in crystal: one peptide bound per monomer

B1: Cdt1-3FLAG (natural protein, human, UniProt Q9H211 1-546, looked up)
chain: MEQRRVTDFFARRRPGPPRIAPPKLACRTPSPARPALRAPASATSGSRKRARPPAAPGRDQARPPARRRLRLSVDEVSSPSTPEAPDIPACPSPGQKIKKSTPAAGQPPHLTSAQDQDTISELASCLQRARELGARVRALKASAQDAGESCTPEAEGRPEEPCGEKAPAYQRFHALAQPGLPGLVLPYKYQVLAEMFRSMDTIVGMLHNRSETPTFAKVQRGVQDMMRRRFEECNVGQIKTVYPASYRFRQERSVPTFKDGTRRSDYQLTIEPLLEQEADGAAPQLTASRLLQRRQIFSQKLVEHVKEHHKAFLASLSPAMVVPEDQLTRWHPRFNVDEVPDIEPAALPQPPATEKLTTAQEVLARARNLISPRMEKALSQLALRSAAPSSPGSPRPALPATPPATPPAASPSALKGVSQDLLERIRAKEAQKQLAQMTRCPEQEQRLQRLERLPELARVLRSVFVSERKPALSMEVACARMVGSCCTIMSPGEMEKHLLLLSELLPDWLSLHRIRTDTYVKLDKAADLAHITARLAHQTRAEEGL
notes: Cdt1, human; also called FLAG-tagged Cdt1; Cdt1-3FLAG (WT); source: Sf21 insect cells (baculovirus), purified (DEAE flowthrough, anti-FLAG resin, 3× FLAG peptide elution); not shown: 3FLAG, C-terminal, kept
[3]
  stoichiometry N: 2.04 Cdt1 molecules on one PCNA trimer

B2: Cdt1: DNA replication licensing factor, FLAG-tagged, purified from insect cells; GFP-tagged in FRAP (protein, UniProt Q9H211 1-546, looked up)
DNA replication factor Cdt1: B1 chain
modifications: FLAG or eGFP tag
notes: DNA replication licensing factor, FLAG-tagged, purified from insect cells; GFP-tagged in FRAP
[4]
  bound protein: 301 fmol
[5]
  binding of free PCNA to protein beads: PCNA was detected
[6]
  FRAP behaviour at UV-C–damaged sites: dynamic interactions
